Drawing on PMC6076264, this text covers apparent affinity of RF1 for pre-hydrolysis complexes (PreHC, 0.01 uM) prepared with bL12-depleted (∆bL12) ribosomes, from peptide hydrolysis (10 s, 37 °C) and apparent affinity of RF1 for pre-hydrolysis complexes (PreHC, 0.01 uM) prepared with wild-type ribosomes bearing bL12, from peptide hydrolysis (10 s, 37 °C) for 1 substance.

The target of this experiment is ribosomal protein bL12 (E. coli (endogenous in ribosomes of strain MRE600)) (UniProt P0A7K2).
UniProt P0A7K2, sequence (P0A7K2 whole entry): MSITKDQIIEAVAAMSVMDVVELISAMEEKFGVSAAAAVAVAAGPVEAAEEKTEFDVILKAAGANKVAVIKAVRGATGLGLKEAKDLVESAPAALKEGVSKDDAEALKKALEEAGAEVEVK

With “RF1 (wild type) (from UniProt P0A7I0 1-360) (natural protein)”, the apparent affinity of RF1 for pre-hydrolysis complexes (PreHC, 0.01 uM) prepared with bL12-depleted (∆bL12) ribosomes, from peptide hydrolysis (10 s, 37 °C) was 210 nM and the apparent affinity of RF1 for pre-hydrolysis complexes (PreHC, 0.01 uM) prepared with wild-type ribosomes bearing bL12, from peptide hydrolysis (10 s, 37 °C) amounted to 9 nM.
